According to publication PMC2911444 (Journal of molecular biology, 2008):

Experiments:
Assay in all cases: cryo-EM structure
[1] = molecular target: pentameric vertex complex of CIV (vertex protein) (Chilo iridescent virus (CIV))
[2] = molecular target: zip protein (CIV minor capsid protein) (Chilo iridescent virus (CIV))
cryo-EM structure = molecular target: the molecule itself

Molecule: pentameric vertex complex of CIV (vertex protein) (natural protein)
- stoichiometry N [1]: 5

Molecule: zip protein (CIV minor capsid protein) (natural protein)
- stoichiometry N [2]: 2

B1: P50, the CIV major capsid protein (MCP) (natural protein)
chain: MSISSSNVTSGFIDIATKDEIEKYMYGGKTSTAYFVRETRKATWFTQVPVSLTRANGSANFGSEWSASISRAGDYLLYTWLRVRIPSVTLLSTNQFGANGRIRWCRNFMHNLIRECSITFNDLVAARFDHYHLDFWAAFTTPASKAVGYDNMIGNVSALIQPQPVPVAPATVSLPEADLNLPLPFFFSRDSGVALPTAALPYNEMRINFQFHDWQRLLILDNIAAVASQTVVPVVGATSDIATAPVLHHGTVWGNYAIVSNEERRRMGCSVRDILVEQVQTAPRHVWNPTTNDAPNYDIRFSHAIKALFFAVRNTTFSNQPSNYTTASPVITSTTVILEPSTGAFDPIHHTTLIYENTNRLNHMGSDYFSLVNPWYHAPTIPGLTGFHEYSYSLAFNEIDPMGSTNYGKLTNISIVPTASPAAKVGAAGTGPAGSGQNFPQTFEFIVTALNNNIIRISGGALGFPVL
- stoichiometry N (cryo-EM structure): 3
